Legend:
[1] = target: T1, CD22 (UniProt P20273 20-847, limits assumed); experiment: flow cytometry, Raji cells
T1 construct: whole, on cells

[2] = target: T2, EGFR (UniProt P00533 25-1210); experiment: flow cytometry, MDA-MB 231 and PC-3 cells
T2 construct: whole, on cells

[3] = target: T3, BCMA (UniProt Q02223 1-184, limits assumed); experiment: flow cytometry, RPMI 8226 cells
T3 construct: whole, on cells
T3 sequence (looked up): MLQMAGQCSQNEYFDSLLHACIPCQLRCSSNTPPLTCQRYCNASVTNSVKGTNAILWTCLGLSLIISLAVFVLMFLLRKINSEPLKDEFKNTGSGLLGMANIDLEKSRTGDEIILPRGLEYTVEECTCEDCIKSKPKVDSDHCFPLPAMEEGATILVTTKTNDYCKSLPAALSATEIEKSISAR

[4] = target: T4, CD135 (UniProt P36888 27-993, limits assumed); experiment: flow cytometry, MOLM-13 cells
T4 construct: whole, on cells; also called FLT-3

[5] = target: T5, CD123 (UniProt P26951 19-378, limits assumed); experiment: flow cytometry, MOLM-13 cells
T5 construct: whole, on cells; also called IL3RA
T5 sequence (P26951 19-378 limits assumed): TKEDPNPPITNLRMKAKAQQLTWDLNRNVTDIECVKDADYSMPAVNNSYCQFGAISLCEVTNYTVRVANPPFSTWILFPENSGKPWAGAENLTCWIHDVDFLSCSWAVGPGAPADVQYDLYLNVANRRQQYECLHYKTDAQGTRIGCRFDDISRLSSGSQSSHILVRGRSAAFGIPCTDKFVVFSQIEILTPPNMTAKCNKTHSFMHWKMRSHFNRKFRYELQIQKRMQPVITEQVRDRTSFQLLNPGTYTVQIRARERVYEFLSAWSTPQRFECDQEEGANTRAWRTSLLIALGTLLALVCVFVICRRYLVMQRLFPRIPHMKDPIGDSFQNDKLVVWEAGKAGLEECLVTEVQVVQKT

[6] = target: T6, CD70 (UniProt P32970 1-193, limits assumed); experiment: flow cytometry, Raji cells
T6 construct: whole, on cells
T6 sequence (looked up): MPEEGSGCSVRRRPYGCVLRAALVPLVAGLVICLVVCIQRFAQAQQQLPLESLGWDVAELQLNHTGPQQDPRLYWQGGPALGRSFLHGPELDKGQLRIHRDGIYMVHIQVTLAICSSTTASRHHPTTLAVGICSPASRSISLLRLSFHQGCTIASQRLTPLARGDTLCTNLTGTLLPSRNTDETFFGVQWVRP

B1: CD22 bridging molecule (E200 + CD22 binder, m971-L7, B023) (Fab, V domains shown)
VH: QVQLQQSGPGMVKPSQTLSLTCAISGDSVSSNSVAWNWIRQSPSRGLEWLGRTYYRSTWYNDYAVSMKSRITINPDTNKNQFSLQLNSVTPEDTAVYYCAREVTGDLEDAFDIWGQGTMVTVSS
VL: DIQMIQSPSSLSASVGDRVTITCRASQTIWSYLNWYRQRPGEAPNLLIYAASSLQSGVPSRFSGRGSGTDFTLTISSLQAEDFATYYCQQSYSIPQTFGQGTKLEIKR
- binding result [1]: binds

B2: EGFR bridging molecule (E200 + EGFR binder, Matuzumab, B035) (Fab, V domains shown)
VH: QVQLVQSGAEVKKPGASVKVSCKASGYTFTSHWMHWVRQAPGQGLEWIGEFNPSNGRTNYNEKFKSKATMTVDTSTNTAYMELSSLRSEDTAVYYCASRDYDYDGRYFDYWGQGTLVTVSS
VL: DIQMTQSPSSLSASVGDRVTITCSASSSVTYMYWYQQKPGKAPKLLIYDTSNLASGVPSRFSGSGSGTDYTFTISSLQPEDIATYYCQQWSSHIFTFGQGTKVEIKR
- binding result [2]: binds

B3: BCMA bridging molecule (E200 + BCMA binder, clone CA8 J9M0, B039) (Fab, V domains shown)
VH: QVQLVQSGAEVKKPGSSVKVSCKGSGYTFTNYWMHWVRQAPGQGLEWIGATYRGHSDTYYNQKFKGRATLTADTSTSTAYMELSSLRSEDTAVYYCTRGAIYDGYDVLDNWGQGTLVTVSS
VL: DIQMTQSPSSLSASVGDRVTITCSASQDISNYLNWYQQKPGKAPKLLIYYTSNLHSGVPSRFSGSGSGTDFTLTISSLQPEDFATYYCQQYRKLPWTFGQGTKLEIKR
- binding result [3]: binds

B4: CD135 bridging molecule (E200 + CD135 binder, clone 4G8, B041) (Fab, V domains shown)
VH: QVQLQQPGAELVKPGASLKLSCKSSGYTFTSYWMHWVRQRPGHGLEWIGEIDPSDSYKDYNQKFKDKATLTVDRSSNTAYMHLSSLTSDDSAVYYCARAITTTPFDFWGQGTTLTVSS
VL: DIVLTQSPATLSVTPGDSVSLSCRASQSISNNLHWYQQKSHESPRLLIKYASQSISGIPSRFSGSGSGTDFTLSINSVETEDFGVYFCQQSNTWPYTFGGGTKLEIKR
- binding result [4]: binds

B5: CD123 bridging molecule (E200 + CD123 binder, clone 32716, B042) (Fab, V domains shown)
VH: QIQLVQSGPELKKPGETVKISCKASGYIFTNYGMNWVKQAPGKSFKWMGWINTYTGESTYSADFKGRFAFSLETSASTAYLHINDLKNEDTATYFCARSGGYDPMDYWGQGTSVTVSS
VL: DIVLTQSPASLAVSLGQRATISCRASESVDNYGNTFMHWYQQKPGQPPKLLIYRASNLESGIPARFSGSGSRTDFTLTINPVEADDVATYYCQQSNEDPPTFGAGTKLELKR
- binding result [5]: binds

B6: CD70 bridging molecule (E200 + CD70 binder, Cusatuzumab, B028) (Fab, V domains shown)
VH: EVQLVESGGGLVQPGGSLRLSCAASGFTFSVYYMNWVRQAPGKGLEWVSDINNEGGTTYYADSVKGRFTISRDNSKNSLYLQMNSLRAEDTAVYYCARDAGYSNHVPIFDSWGQGTLVTVSS
VL: SQAVVTQEPSLTVSPGGTVTLTCGLKSGSVTSDNFPTWYQQTPGQAPRLLIYNTNTRHSGVPDRFSGSILGNKAALTITGAQADDEAEYFCALFISNPSVEFGGGTQLTVLK
- binding result [6]: binds

Source: US20250281611A1 (BIOSCEPTRE AUST, published 2025)
